According to publication PMC3263374:

Target: ApoE 130-149 (Homo sapiens) (UniProt P02649)
Experiment: NMR
Conditions: modification not given

Sequence of ApoE 130-149 (Homo sapiens) (P02649 130-149): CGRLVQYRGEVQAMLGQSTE

Row | Kd [µM] | Substance
1 | 405 | LDLR LA4 (in LA45), P01130
2 | 730 | LDLR LA5 (in LA45), P01130
